B1: DFF45 NTD: N-terminal domain of human DNA fragmentation factor 45, unfolded when free (protein, UniProt O00273 1-116, looked up, fragment)
chain: MEVTGDAGVPESGEIRTLKPCLLRRNYSREQHGVAASCLEDLRSKACDILAIDKSLTPVTLVLAEDGTIVDDDDYFLCLPSNTKFVALASNEKWAYNNSDGGTAWISQESFDVDET
B2: FAIM protein: 20 kDa apoptosis inhibitor in b cells, untagged (protein, UniProt Q9NVQ4 2-179, looked up)
Fas apoptotic inhibitory …: TDLVAVWDVALSDGVHKIEFEHGTTSGKRVVYVDGKEEIRKEWMFKLVGKETFYVGAAKTKATINIDAISGFAYEYTLEINGKSLKKYMEDRSKTTNTWVLHMDGENFRIVLEKDAMDVWCNGKKLETAGEFVDDGTETHFSIGNHDCYIKAVSSGKRKEGIIHTLIVDNREIPEIAS

Assays:
[1] = Solubility of target protein or complex with and without the small solubility and stability enhancing tag; assay type: physicochemical
[2] = Solution stability (time until the sample precipitates) with and without the tag; assay type: physicochemical; settings: FAIM, 25° C.

| Molecule | solubility ([1]; FIG. 4 legend) | can be concentrated up to ([1]; FAIM) | time until precipitation from solution / stable in solution [2] |
| --- | --- | --- | --- |
| B1 | 200 µM |  |  |
| B2 |  | up to 1 mM | one week |
